These results are taken from patent US20130266517A1 (published 2013).

In assay [1] the target is T1, alpha-synuclein (natural human wildtype alpha-synuclein) (human, UniProt P37840 1-140). Put plainly: BLI, ForteBio Octet QK; apparent kd. As for the experimental part: (§1) Binding kinetic of humanized 1H7 antibodies were also measured by bio-layer interferometry (BLI) using a ForteBio Octet QK instrument (ForteBio, Menlo Park, Calif.). Detailed binding kinetic parameters (association rate, apparent ka, dissociation rate, apparent kd, and affinity constant, apparent KD) were determined for chimeric 1H7 and various humanized 1H7 antibodies (Tables 6-7, FIGS. 4A-C). Apparent ka, apparent kd and apparent KD are binding kinetic parameters obtained using ForteBio assay formats. These parameters differ from ka, kd and KD measured using Biocore assays due to, e.g., avidity effects associated with ForteBio assay formats.

For assay [2], the target named is T1, alpha-synuclein (natural human wildtype …). Put plainly: BLI, ForteBio Octet QK; apparent KD. How it is done: as §1
(Biolayer interferometry detects binding as a change in optical thickness at a sensor tip.)

The target is the same in assay [3]. Put plainly: BLI, ForteBio Octet QK; apparent ka. How it is done: as §1
For assay [4] the target is unchanged. Put plainly: Biacore (SPR) full kinetic analysis. As for the experimental part: Biacore full binding kinetic analysis of antibodies were carried out using Biacore. Detailed binding kinetic parameters (association rate, ka, dissociation rate, kd, and affinity constant, KD) were determined for murine 1H7 (FIG. 3A), chimeric 1H7 (FIG. 3B) and humanized 1H7 (Hu1H7VHv3-Hu1H7VLv3, Hu1H7VHv3-Hu1H7VLv1, Hu1H7VHv4-Hu1H7VLv1) antibodies (FIG. 3C).
(In general: In SPR one partner is held on a chip, and binding of the other changes the refractive index at the surface.)

B1: Humanized 1H7 H2L1 (Hu1H7VHv2-Hu1H7VLv1) (antibody, V domains shown)
VH: QVQLVQSGAEVKKPGASVKVSCKASGYSFTSYYIHWVRQAPGQGLEWIGWIYPGSGNTKYSEKFKGRATLTADTSTSTAYMELRSLRSDDTAVYFCARDGCYGFAYWGQGTLVTVSS
VL: DIQLTQSPSSLSASVGDRVTITCKASQSVDYDGDSYMNWYQQKPGKAPKFLICAASNLESGVPSRFSGSGSGTDFTLTISSLQPEDAATYYCQQSNEDPFTFGQGTKLEIK
What is called koff is a measure of how fast the partners let go of each other. As usually defined, the kon is a measure of how fast the partners come together. For the molecule B1, in assay [1], the koff turned out to be 4.2e-06 s⁻¹. Also, the Kd in assay [2] amounted to 0.0072 nM. For the same molecule, the on-rate constant (kon) in assay [3] stood at 580000 M⁻¹ s⁻¹.

B2: Humanized 1H7 H3L1 (Hu1H7VHv3-Hu1H7VLv1) (antibody, V domains shown)
VH: QVQLVQSGAEVKKPGASVKVSCKASGYTFTSYYIHWVRQAPGQGLEWMGWIYPGSGNTKYSEKFKGRATMTADTSTSTAYMELRSLRSDDTAVYYCARDGCYGFAYWGQGTLVTVSS
VL: DIQLTQSPSSLSASVGDRVTITCKASQSVDYDGDSYMNWYQQKPGKAPKFLICAASNLESGVPSRFSGSGSGTDFTLTISSLQPEDAATYYCQQSNEDPFTFGQGTKLEIK
Regarding B2, in assay [4], the Kd amounted to 12 nM, the koff turned out to be 0.013 s⁻¹ and the association rate constant (kon) was found to be 1.1e+06 M⁻¹ s⁻¹.

B3: Humanized 1H7 H4L4 (Hu1H7VHv4-Hu1H7VLv4) (antibody, V domains shown)
VH: QVQLVQSGAEVKKPGASVKVSCKASGYSFTSYYIHWVRQAPGQGLEWIGWIYPGSGNTKYSEKFKGRATLTADTSTSTAYMELRSLRSDDTAVYFCARDGSYGFAYWGQGTLVTVSS
VL: DIQLTQSPSSLSASVGDRVTITCKASQSVDYDGDSYMNWYQQKPGKAPKFLIYAASNLESGVPSRFSGSGSGTDFTLTISSLQPEDFATYYCQQSNEDPFTFGQGTKLEIK
B3: in assay [1], the koff amounted to 0.0023 s⁻¹. For the same molecule, the Kd in assay [2] was found to be 4.4 nM. The kon in assay [3] is 520000 M⁻¹ s⁻¹.

B4: Humanized 1H7 H3L3 (Hu1H7VHv3-Hu1H7VLv3) (antibody, V domains shown)
VH: QVQLVQSGAEVKKPGASVKVSCKASGYTFTSYYIHWVRQAPGQGLEWMGWIYPGSGNTKYSEKFKGRATMTADTSTSTAYMELRSLRSDDTAVYYCARDGCYGFAYWGQGTLVTVSS
VL: DIQLTQSPSSLSASVGDRVTITCKASQSVDYDGDSYMNWYQQKPGKAPKFLICAASNLESGVPSRFSGSGSGTDFTLTISSLQPEDFATYYCQQSNEDPFTFGQGTKLEIK
In assay [4], B4 gave a Kd of 9 nM, a koff of 0.011 s⁻¹ and a kon of 1.3e+06 M⁻¹ s⁻¹.

B5: Humanized 1H7 H4L1 (Hu1H7VHv4-Hu1H7VLv1) (antibody, V domains shown)
VH: QVQLVQSGAEVKKPGASVKVSCKASGYSFTSYYIHWVRQAPGQGLEWIGWIYPGSGNTKYSEKFKGRATLTADTSTSTAYMELRSLRSDDTAVYFCARDGSYGFAYWGQGTLVTVSS
VL: DIQLTQSPSSLSASVGDRVTITCKASQSVDYDGDSYMNWYQQKPGKAPKFLICAASNLESGVPSRFSGSGSGTDFTLTISSLQPEDAATYYCQQSNEDPFTFGQGTKLEIK
In assay [4], B5 showed a Kd of 33.9 nM, a koff of 0.033 s⁻¹ and an on-rate (kon) of 970000 M⁻¹ s⁻¹.

B6: Humanized 1H7 H4L3 (Hu1H7VHv4-Hu1H7VLv3) (antibody, V domains shown)
VH: QVQLVQSGAEVKKPGASVKVSCKASGYSFTSYYIHWVRQAPGQGLEWIGWIYPGSGNTKYSEKFKGRATLTADTSTSTAYMELRSLRSDDTAVYFCARDGSYGFAYWGQGTLVTVSS
VL: DIQLTQSPSSLSASVGDRVTITCKASQSVDYDGDSYMNWYQQKPGKAPKFLICAASNLESGVPSRFSGSGSGTDFTLTISSLQPEDFATYYCQQSNEDPFTFGQGTKLEIK
In the case of B6, the koff in assay [1] worked out at 0.002 s⁻¹. Also, the Kd in assay [2] came out at 2.7 nM. Also, the kon in assay [3] worked out at 740000 M⁻¹ s⁻¹.

B7: Humanized 1H7 H1L4 (Hu1H7VHv1-Hu1H7VLv4) (antibody, V domains shown)
VH: QVQLVQSGAELKKPGASVKVSCKASGYSFTSYYIHWVKQAPGQGLEWIGWIYPGSGNTKYSEKFKGRATLTADTSTSTAYMELRSLRSDDTAVYFCARDGCYGFAYWGQGTLVTVSS
VL: DIQLTQSPSSLSASVGDRVTITCKASQSVDYDGDSYMNWYQQKPGKAPKFLIYAASNLESGVPSRFSGSGSGTDFTLTISSLQPEDFATYYCQQSNEDPFTFGQGTKLEIK
Regarding B7, in assay [1], the koff is 0.0058 s⁻¹. The Kd in assay [2] came out at 3.3 nM. The on-rate (kon) in assay [3] stood at 1.8e+06 M⁻¹ s⁻¹.

B8: Humanized 1H7 H5L3 (Hu1H7VHv5-Hu1H7VLv3) (antibody, V domains shown)
VH: QVQLVQSGAEVKKPGASVKVSCKASGYTFTSYYIHWVRQAPGQGLEWMGWIYPGSGNTKYSEKFKGRATMTADTSTSTAYMELRSLRSDDTAVYYCARDGSYGFAYWGQGTLVTVSS
VL: DIQLTQSPSSLSASVGDRVTITCKASQSVDYDGDSYMNWYQQKPGKAPKFLICAASNLESGVPSRFSGSGSGTDFTLTISSLQPEDFATYYCQQSNEDPFTFGQGTKLEIK
B8: the off-rate (koff) in assay [1] is 0.002 s⁻¹. The Kd in assay [2] was 2.6 nM. Moreover, the kon in assay [3] came out at 760000 M⁻¹ s⁻¹.

B9: Humanized 1H7 H5L2 (Hu1H7VHv5-Hu1H7VLv2) (antibody, V domains shown)
VH: QVQLVQSGAEVKKPGASVKVSCKASGYTFTSYYIHWVRQAPGQGLEWMGWIYPGSGNTKYSEKFKGRATMTADTSTSTAYMELRSLRSDDTAVYYCARDGSYGFAYWGQGTLVTVSS
VL: DIQLTQSPSSLSASVGDRVTITCKASQSVDYDGDSYMNWYQQKPGKAPKFLIYAASNLESGVPSRFSGSGSGTDFTLTISSLQPEDAATYYCQQSNEDPFTFGQGTKLEIK
Take B9: in assay [1], the off-rate constant (koff) worked out at 0.0021 s⁻¹. Besides, the Kd in assay [2] came to 4 nM. Further, the kon in assay [3] was 520000 M⁻¹ s⁻¹.

B10: Humanized 1H7 H2L2 (Hu1H7VHv2-Hu1H7VLv2) (antibody, V domains shown)
VH: QVQLVQSGAEVKKPGASVKVSCKASGYSFTSYYIHWVRQAPGQGLEWIGWIYPGSGNTKYSEKFKGRATLTADTSTSTAYMELRSLRSDDTAVYFCARDGCYGFAYWGQGTLVTVSS
VL: DIQLTQSPSSLSASVGDRVTITCKASQSVDYDGDSYMNWYQQKPGKAPKFLIYAASNLESGVPSRFSGSGSGTDFTLTISSLQPEDAATYYCQQSNEDPFTFGQGTKLEIK
As to B10, the off-rate constant (koff) in assay [1] amounted to 0.0046 s⁻¹. Besides, in assay [2], the Kd stood at 2 nM. The kon in assay [3] came out at 2.3e+06 M⁻¹ s⁻¹.

B11: Humanized 1H7 H1L2 (Hu1H7VHv1-Hu1H7VLv2) (antibody, V domains shown)
VH: QVQLVQSGAELKKPGASVKVSCKASGYSFTSYYIHWVKQAPGQGLEWIGWIYPGSGNTKYSEKFKGRATLTADTSTSTAYMELRSLRSDDTAVYFCARDGCYGFAYWGQGTLVTVSS
VL: DIQLTQSPSSLSASVGDRVTITCKASQSVDYDGDSYMNWYQQKPGKAPKFLIYAASNLESGVPSRFSGSGSGTDFTLTISSLQPEDAATYYCQQSNEDPFTFGQGTKLEIK
As to B11, the koff in assay [1] was found to be 0.009 s⁻¹. For the same molecule, the Kd in assay [2] is 5.8 nM. Moreover, in assay [3], the kon was 1.6e+06 M⁻¹ s⁻¹.

B12: Humanized 1H7 H1L3 (Hu1H7VHv1-Hu1H7VLv3) (antibody, V domains shown)
VH: QVQLVQSGAELKKPGASVKVSCKASGYSFTSYYIHWVKQAPGQGLEWIGWIYPGSGNTKYSEKFKGRATLTADTSTSTAYMELRSLRSDDTAVYFCARDGCYGFAYWGQGTLVTVSS
VL: DIQLTQSPSSLSASVGDRVTITCKASQSVDYDGDSYMNWYQQKPGKAPKFLICAASNLESGVPSRFSGSGSGTDFTLTISSLQPEDFATYYCQQSNEDPFTFGQGTKLEIK
As for B12, the koff in assay [1] was determined as 0.00064 s⁻¹. In addition, the Kd in assay [2] is 2.9 nM. Besides, in assay [3], the on-rate constant (kon) was 220000 M⁻¹ s⁻¹.

B13: Humanized 1H7 H4L2 (Hu1H7VHv4-Hu1H7VLv2) (antibody, V domains shown)
VH: QVQLVQSGAEVKKPGASVKVSCKASGYSFTSYYIHWVRQAPGQGLEWIGWIYPGSGNTKYSEKFKGRATLTADTSTSTAYMELRSLRSDDTAVYFCARDGSYGFAYWGQGTLVTVSS
VL: DIQLTQSPSSLSASVGDRVTITCKASQSVDYDGDSYMNWYQQKPGKAPKFLIYAASNLESGVPSRFSGSGSGTDFTLTISSLQPEDAATYYCQQSNEDPFTFGQGTKLEIK
For the molecule B13, the off-rate constant (koff) in assay [1] is 0.0021 s⁻¹. In assay [2], the Kd was found to be 1.7 nM. In assay [3], the kon was found to be 1.2e+06 M⁻¹ s⁻¹.

B14: Humanized 1H7 H1L1 (Hu1H7VHv1-Hu1H7VLv1) (antibody, V domains shown)
VH: QVQLVQSGAELKKPGASVKVSCKASGYSFTSYYIHWVKQAPGQGLEWIGWIYPGSGNTKYSEKFKGRATLTADTSTSTAYMELRSLRSDDTAVYFCARDGCYGFAYWGQGTLVTVSS
VL: DIQLTQSPSSLSASVGDRVTITCKASQSVDYDGDSYMNWYQQKPGKAPKFLICAASNLESGVPSRFSGSGSGTDFTLTISSLQPEDAATYYCQQSNEDPFTFGQGTKLEIK
With B14, the koff in assay [1] was determined as 0.0012 s⁻¹. Moreover, the Kd in assay [2] was 4.8 nM. The kon in assay [3] worked out at 250000 M⁻¹ s⁻¹.

B15: Humanized 1H7 H5L1 (Hu1H7VHv5-Hu1H7VLv1) (antibody, V domains shown)
VH: QVQLVQSGAEVKKPGASVKVSCKASGYTFTSYYIHWVRQAPGQGLEWMGWIYPGSGNTKYSEKFKGRATMTADTSTSTAYMELRSLRSDDTAVYYCARDGSYGFAYWGQGTLVTVSS
VL: DIQLTQSPSSLSASVGDRVTITCKASQSVDYDGDSYMNWYQQKPGKAPKFLICAASNLESGVPSRFSGSGSGTDFTLTISSLQPEDAATYYCQQSNEDPFTFGQGTKLEIK
For the molecule B15, in assay [4], the Kd was 64 nM, the off-rate constant (koff) was determined as 0.056 s⁻¹ and the on-rate constant (kon) amounted to 880000 M⁻¹ s⁻¹.

B16: Murine 1H7 (antibody, mouse IgG1, V domains shown)
VH: VQLQQSGPELVKPGTSVKISCKASGYSFTSYYIHWVKQSPGQGLEWIGWIYPGSGNTKYSEKFKGKATLTADTSSSTAYMQLSSLTSEDSAVYFCARDGCYGFAYWGQGTLVTVS
VL: DIVLTQSPASLAVSLGQRATISCKASQSVDYDGDSYMNWYQQKPGQPPKFLICAASNLESGIPARFSGSGSGTDFTLNIHPVEEEDAATYYCQQSNEDPFTFGSGTKLEIK
notes: Mouse IgG1; also called m1H7; mouse 1H7
For the molecule B16, in assay [4], the Kd is 9.5 nM, the koff is 0.0096 s⁻¹ and the on-rate constant (kon) turned out to be 1e+06 M⁻¹ s⁻¹.
